B1: FAM98B (parent)
chain: QLDKNSEVYQEVQAMFDTLGIPKS

Variants of: B1
Test: protein stability index of a GFP-peptide fusion (GPS, HEK-293T) (PSI 1-6); higher = more stable
Settings: c terminus: a fixed tail appended
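Note: lentivirally expressed fusions sorted by FACS into six bins by GFP to DsRed ratio, PSI derived from sequencing read proportions per bin multiplied by bin number.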

In order of falling protein stability index:
1. QLDKNSEVYQEVQAMFDTLGIRKS [P22R]  4.78
2. QLDKNSEVYQEVQAMFDTLGIPKD [S24D]  4.28
3. QLDKNSEVYQEVQAMFDTLGEPKS [I21E]  4.21
4. QLDKNSEVYQEVQAMFDTLGIPES [K23E]  4.21
5. QLDKNSEVYQEVQAMFDTLGIEKS [P22E]  4.15
6. QLDKNSEVYQEVQAMFDTLGIDKS [P22D]  4.05
7. QLDKNSEVYQEVQAMFDTLGISKS [P22S]  4.04
8. QLDKNSEVYQEVQAMFDTLGLPKS [I21L]  4
9. QLDKNSEVYQEVQAMFDTLNIPKS [G20N]  3.97
10. QLDKNSEVYQEVQAMFDTLGIPDS [K23D]  3.82
11. QLDKNSEVYQEVQAMFDTLGDPKS [I21D]  3.8
12. QLDKNSEVYQEVQAMFDTLSIPKS [G20S]  3.75
13. QLDKNSEVYQEVQAMFDTLGAPKS [I21A]  3.72
14. QLDKNSEVYQEVQAMFDTLGGPKS [I21G]  3.69
15. QLDKNSEVYQEVQAMFDTLGTPKS [I21T]  3.69
16. QLDKNSEVYQEVQAMFDTLGQPKS [I21Q]  3.64
17. QLDKNSEVYQEVQAMFDTLGIPKG [S24G]  3.61
18. QLDKNSEVYQEVQAMFDTLGPPKS [I21P]  3.6
19. QLDKNSEVYQEVQAMFDTLGWPKS [I21W]  3.6
20. QLDKNSEVYQEVQAMFDTLGKPKS [I21K]  3.58
21. QLDKNSEVYQEVQAMFDTLGIPKN [S24N]  3.56
22. QLDKNSEVYQEVQAMFDTLGIPNS [K23N]  3.54
23. QLDKNSEVYQEVQAMFDTLGCPKS [I21C]  3.53
24. QLDKNSEVYQEVQAMFDTLGVPKS [I21V]  3.51
25. QLDKNSEVYQEVQAMFDTLGIAKS [P22A]  3.48
26. QLDKNSEVYQEVQAMFDTLGITKS [P22T]  3.48
27. QLDKNSEVYQEVQAMFDTLGIPPS [K23P]  3.47
28. QLDKNSEVYQEVQAMFDTLGIPKE [S24E]  3.47
29. QLDKNSEVYQEVQAMFDTLGNPKS [I21N]  3.41
30. QLDKNSEVYQEVQAMFDTLGIPQS [K23Q]  3.41
31. QLDKNSEVYQEVQAMFDTLGHPKS [I21H]  3.4
32. QLDKNSEVYQEVQAMFDTLGIPVS [K23V]  3.4
33. QLDKNSEVYQEVQAMFDTLGIKKS [P22K]  3.38
34. QLDKNSEVYQEVQAMFDTLGINKS [P22N]  3.38
35. QLDKNSEVYQEVQAMFDTLGIPMS [K23M]  3.38
36. QLDKNSEVYQEVQAMFDTLGIPRS [K23R]  3.38
37. QLDKNSEVYQEVQAMFDTLGIMKS [P22M]  3.37
38. QLDKNSEVYQEVQAMFDTLGSPKS [I21S]  3.34
39. QLDKNSEVYQEVQAMFDTLGIPHS [K23H]  3.33
40. QLDKNSEVYQEVQAMFDTLGFPKS [I21F]  3.3
41. QLDKNSEVYQEVQAMFDTLGMPKS [I21M]  3.27
42. QLDKNSEVYQEVQAMFDTLGIPAS [K23A]  3.26
43. QLDKNSEVYQEVQAMFDTLGIPKQ [S24Q]  3.25
44. QLDKNSEVYQEVQAMFDTLGIPSS [K23S]  3.24
45. QLDKNSEVYQEVQAMFDTLGIPTS [K23T]  3.24
46. QLDKNSEVYQEVQAMFDTLGIPGS [K23G]  3.17
47. QLDKNSEVYQEVQAMFDTLGIVKS [P22V]  3.16
48. QLDKNSEVYQEVQAMFDTLTIPKS [G20T]  3.15
49. QLDKNSEVYQEVQAMFDTLGICKS [P22C]  3.11
50. QLDKNSEVYQEVQAMFDTLGIPCS [K23C]  3.06
51. QLDKNSEVYQEVQAMFDTLYIPKS [G20Y]  3.02
52. QLDKNSEVYQEVQAMFDTLPIPKS [G20P]  3.01
53. QLDKNSEVYQEVQAMFDTLWIPKS [G20W]  3
54. QLDKNSEVYQEVQAMFDTLGYPKS [I21Y]  3
55. QLDKNSEVYQEVQAMFDTLGIPKF [S24F]  3
56. QLDKNSEVYQEVQAMFDTLGIPKH [S24H]  2.99
57. QLDKNSEVYQEVQAMFDTLGIPKW [S24W]  2.99
58. QLDKNSEVYQEVQAMFDTLQIPKS [G20Q]  2.98
59. QLDKNSEVYQEVQAMFDTLGIWKS [P22W]  2.98
60. QLDKNSEVYQEVQAMFDTLGIPKK [S24K]  2.96
61. QLDKNSEVYQEVQAMFDTLGIPKA [S24A]  2.88
62. QLDKNSEVYQEVQAMFDTLGIHKS [P22H]  2.87
63. QLDKNSEVYQEVQAMFDTLVIPKS [G20V]  2.86
64. QLDKNSEVYQEVQAMFDTLGIPKP [S24P]  2.79
65. QLDKNSEVYQEVQAMFDTLGIIKS [P22I]  2.78
66. QLDKNSEVYQEVQAMFDTLGRPKS [I21R]  2.76
67. QLDKNSEVYQEVQAMFDTLGIPYS [K23Y]  2.71
68. QLDKNSEVYQEVQAMFDTLGIPKM [S24M]  2.69
69. QLDKNSEVYQEVQAMFDTLGIPKI [S24I]  2.67
70. QLDKNSEVYQEVQAMFDTLGIQKS [P22Q]  2.62
71. QLDKNSEVYQEVQAMFDTLGIPKV [S24V]  2.61
72. QLDKNSEVYQEVQAMFDTLGIPFS [K23F]  2.59
73. QLDKNSEVYQEVQAMFDTLGIYKS [P22Y]  2.54
74. QLDKNSEVYQEVQAMFDTLGIGKS [P22G]  2.53
75. QLDKNSEVYQEVQAMFDTLMIPKS [G20M]  2.5
76. QLDKNSEVYQEVQAMFDTLGIPKR [S24R]  2.5
77. QLDKNSEVYQEVQAMFDTLGIPKT [S24T]  2.48
78. QLDKNSEVYQEVQAMFDTLGIPLS [K23L]  2.46
79. QLDKNSEVYQEVQAMFDTLGIPKL [S24L]  2.46
80. QLDKNSEVYQEVQAMFDTLRIPKS [G20R]  2.44
81. QLDKNSEVYQEVQAMFDTLGIPKC [S24C]  2.44
82. QLDKNSEVYQEVQAMFDTLGIPKY [S24Y]  2.36
83. QLDKNSEVYQEVQAMFDTLGIPWS [K23W]  2.3
84. QLDKNSEVYQEVQAMFDTLGIPIS [K23I]  2.15
85. QLDKNSEVYQEVQAMFDTLGIFKS [P22F]  2.12
86. QLDKNSEVYQEVQAMFDTLGILKS [P22L]  2.03

— the supplement of paper PMC10567573
